Measured values from paper PMC6987189, “Native aggregation is a common feature among triosephosphate isomerases of different species” (Scientific Reports, 2020).
Where “and” joins values, the source holds several entries; their conditions need not be identical. Equal values may be shown once.

How the values were obtained:
[1] = molecular target: the molecule itself; test: native gel or EMSA; clear native electrophoresis (CN-PAGE), normal polarity (cathode-anode), 4-10% gradient gels, HEPES/imidazole pH 7.0 (40.0/15.3, 88.9/34.0 or 133.2/50 mM in the gel), 150 V, 4 °C, 5 h, ten micrograms of purified enzyme; masses from ferritin and albumin markers, means of the gel conditions; also after 10 mM DTT; dimers to higher aggregates
[2] = molecular target: the molecule itself; test: native gel or EMSA; clear native electrophoresis (CN-PAGE), inverse polarity (anode-cathode), 4-10% gradient gels, HEPES/imidazole pH 7.0, 150 V, 4 °C, 5 h, ten micrograms of purified enzyme; no mass markers; dimers to higher aggregates

B1: Thermus thermophilus triosephosphate isomerase (enzyme, UniProt Q5SJR1 1-250, looked up)
chain: MRRVLVAGNWKMHKTPSEARVWFAELKRLLPPLQSEAAVLPAFPILPVAKEVLAETQVGYGAQDVSAHKEGAYTGEVSARMLSDLGCRYAIVGHSERRRYHGETDALVAEKAKRLLEEGITPILCVGEPLEVREKGEAVPYTLRQLRGSLEGVEPPGPEALVIAYEPVWAIGTGKNATPEDAEAMHQAIRKALSERYGEAFASRVRILYGGSVNPKNFADLLSMPNVDGGLVGGASLELESFLALLRIAG
notes: gene cloned into pET-3aHIS; also called TtTIM; Tt; source: E. coli Bl21 (DE3)-p-Lys S, purified (ammonium sulphate, Butyl-650M, Source 15Q)
- stoichiometry N [1]: 9 dimers in the aggregate

B2: Taenia solium triosephosphate isomerase (enzyme, UniProt Q9GTX8 1-250, looked up)
chain: MTRKLFVGGNWKMNGSYSHINTFFDTLQKADTDPNADIVIGVPACYLKYAQDKAPKGIKIAAENCYKVGSGAFTGEISTEMIKDCGCEWVILGHSERRHIFGESNELIGEKVKHALDSGLNVIPCIGELLSEREAGKTNDVCFAQMDAIAKNVPSKEAWDKVVIAYEPVWAIGTGKTATPAQAQEVHKVVRDWIRKHVDAGIADKVRILYGGSVTASNAKDLGTQPDVDGFLVGGASLKPDFITIINARR
notes: triosephosphate isomerase (TIM), Taenia solium; gene cloned into pRSET; also called TsTIM; Ts; source: E. coli Bl21 (DE3)-p-Lys S, purified (ammonium sulphate, Butyl-650M, Source 15Q)
- stoichiometry N [1]: 11 dimers in the aggregate and 8.5 dimers in the aggregate

B3: Trypanosoma cruzi triosephosphate isomerase (enzyme, UniProt P52270 1-251, looked up)
chain: MASKPQPIAAANWKCNGSESLLVPLIETLNAATFDHDVQCVVAPTFLHIPMTKARLTNPKFQIAAQNAITRSGAFTGEVSLQILKDYGISWVVLGHSERRLYYGETNEIVAEKVAQACAAGFHVIVCVGETNEEREAGRTAAVVLTQLAAVAQKLSKEAWSRVVIAYEPVWAIGTGKVATPQQAQEVHELLRRWVRSKLGTDIAAQLRILYGGSVTAKNARTLYQMRDINGFLVGGASLKPEFVEIIEATK
notes: triosephosphate isomerase (TIM), Trypanosoma cruzi; gene cloned into pET-3a; the aggregates are counted in dimers; also called TcTIM; Tc; source: E. coli Bl21 (DE3)-p-Lys S, purified (SP Sepharose fast flow, Butyl toyopearl, ammonium sulphate precipitation)
- binding result [2]: binds

B4: Leishmania mexicana triosephosphate isomerase (enzyme, UniProt P48499 1-251, looked up)
chain: MSAKPQPIAAANWKCNGTTASIEKLVQVFNEHTISHDVQCVVAPTFVHIPLVQAKLRNPKYVISAENAIAKSGAFTGEVSMPILKDIGVHWVILGHSERRTYYGETDEIVAQKVSEACKQGFMVIACIGETLQQREANQTAKVVLSQTSAIAAKLTKDAWNQVVLAYEPVWAIGTGKVATPEQAQEVHLLLRKWVSENIGTDVAAKLRILYGGSVNAANAATLYAKPDINGFLVGGASLKPEFRDIIDATR
notes: triosephosphate isomerase (TIM), Leishmania mexicana; gene cloned into pET-3aHIS; also called LmTIM; Lm; source: E. coli Bl21 (DE3)-p-Lys S, purified (ammonium sulphate, Butyl-650M, Source 15Q)
- binding result [2]: binds
